Earlier results on three molecules are cited in patent US6759420B1, “Arylalkanoyl derivatives, processes for their preparation, their use and pharmaceutical compositions containing them” (Aventis Pharma Deutschland GmbH, priority 1999, dated 2004).

For data set [1], the system named is thrombin and factor Xa. Particulars: via anti-thrombin III; cited from earlier work.
For data set [2] the following is noted: TAP at levels giving less than about two fold aPTT prolongation; heparin at doses causing a five fold increase in aPTT; cited from earlier work.
The conditions of data set [3]: recombinantly-produced inhibitor, cited from earlier work; for bleeding time compared to other anticoagulants: animal model systems; for clotting in thromboplastin-induced, ligated jugular vein model of deep vein thrombosis: animal model.
Data set [4] deals with factor Xa (Homo sapiens, UniProt P00742). The note with it: background statement; cited from earlier work.
The conditions of data set [5]: subcutaneous; cited from earlier work.

factor Xa, sequence (P00742 235-488 limits assumed): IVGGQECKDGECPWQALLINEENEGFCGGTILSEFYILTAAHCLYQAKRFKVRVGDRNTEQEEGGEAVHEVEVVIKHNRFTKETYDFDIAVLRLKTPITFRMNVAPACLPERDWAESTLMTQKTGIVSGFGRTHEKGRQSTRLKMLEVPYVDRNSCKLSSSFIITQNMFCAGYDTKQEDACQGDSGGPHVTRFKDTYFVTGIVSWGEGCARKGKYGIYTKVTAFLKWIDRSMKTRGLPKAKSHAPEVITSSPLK
factor Xa, sequence (P00742 41-179 limits assumed): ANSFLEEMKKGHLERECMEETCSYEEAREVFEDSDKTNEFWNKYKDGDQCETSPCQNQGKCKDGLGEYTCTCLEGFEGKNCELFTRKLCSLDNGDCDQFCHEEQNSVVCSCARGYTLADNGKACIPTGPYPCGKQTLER

Take heparin: the “thrombin inactivated faster than factor Xa” value in data set [1] was “approximately 100 times”. Also, in data set [2], the “"high-shear" arterial thrombosis and "reduced flow" caused by polyester (DACRON) graft” value was “did not prevent thrombosis”.
As a reminder, the Ki is the dissociation constant of the complex between target and ligand, obtained from inhibition or displacement. Regarding “tick anticoagulant peptide (YNRLCIKPRDWIDECDSNEGGERAYFRNGKGGCDSFWICPEDHTGADYYSSYRDCFNACI; UniProt P17726 1-60, looked up) [TAP, reference compound]”, in data set [3], the “bleeding time compared to other anticoagulants” value was “decrease bleeding time” and the “clotting in thromboplastin-induced, ligated jugular vein model of deep vein thrombosis” value is listed as “prevent clotting”. Further, the “"high-shear" arterial thrombosis and "reduced flow" caused by polyester (DACRON) graft” value in data set [2] is listed as “effectively prevents”. Further, the Ki in data set [4] is around 500 pM.

B1: antistasin (protein, UniProt P15358 18-136, looked up)
Antistasin: QGPFGPGCEEAGCPEGSACNIITDRCTCSGVRCRMHCPHGFQRSRYGCEFCKCRLEPMKATCDISECPEGMMCSRLTNKCDCKIDINCRKTCPNGLKRDKLGCEYCECRPKRKLIPRLS
As for B1, in data set [3], the “bleeding time compared to other anticoagulants” value is recorded as “decrease bleeding time” and the “clotting in thromboplastin-induced, ligated jugular vein model of deep vein thrombosis” value is reported as “prevent clotting”. Besides, the inhibition constant Ki in data set [4] is 50 pM. For the same molecule, the “treatment in thromboplastin-induced model of disseminated intravascular coagulation” value in data set [5] is “effective treatment”.
